B1: full-length PKR with N-terminal split Venus V1 tag [human] / truncated PKR kinase domain with N-terminal split Venus V2 tag [human] (parent)
chain 1: MAGDLSAGFFMEELNTYRQKQGVVLKYQELPNSGPPHDRRFTFQVIIDGREFPEGEGRSKKEAKNAAAKLAVEILNKEKKAVSPLLLTTTNSSEGLSMGNYIGLINRIAQKKRLTVNYEQCASGVHGPEGFHYKCKMGQKEYSIGTGSTKQEAKQLAAKLAYLQILSEETSVKSDYLSSGSFATTCESQSNSLVTSTLASESSSEGDFSADTSEINSNSDSLNSSSLLMNGLRNNQRKAKRSLAPRFDLPDMKETKYTVDKRFGMDFKEIELIGSGGFGQVFKAKHRIDGKTYVIKRVKYNNEKAEREVKALAKLDHVNIVHYNGCWDGFDYDPETSDDSLESSDYDPENSKNSSRSKTKCLFIQMEFCDKGTLEQWIEKRRGEKLDKVLALELFEQITKGVDYIHSKKLIHRDLKPSNIFLVDTKQVKIGDFGLVTSLKNDGKRTRSKGTLRYMSPEQISSQDYGKEVDLYALGLILAELLHVCDTAFETSKFFTDLRDGIISDIFDKKEKTLLQKLLSKKPEDRPNTSEILRTLTVWKKSPEKNERHTC
chain 2: TVDKRFGMDFKEIELIGSGGFGQVFKAKHRIDGKTYVIKRVKYNNEKAEREVKALAKLDHVNIVHYNGCWDGFDYDPETSDDSLESSDYDPENSKNSSRSKTKCLFIQMEFCDKGTLEQWIEKRRGEKLDKVLALELFEQITKGVDYIHSKKLIHRDLKPSNIFLVDTKQVKIGDFGLVTSLKNDGKRTRSKGTLRYMSPEQISSQDYGKEVDLYALGLILAELLHVCDTAFETSKFFTDLRDGIISDIFDKKEKTLLQKLLSKKPEDRPNTSEILRTLTVWKKSPEKNERHTC

Variants of: B1
Experiment: split Venus fluorescence complementation in HEK293 cells
[1] = 20 ng/well of each construct, 5 μM of 2AP, n = 3, read off a plot
[2] = 20 ng/well of each construct, n = 7, read off a plot

Variant	response [1]	response [2]	response (20 ng/well of full-length PKR and 30 ng/well of the truncated KD, n = 7, read off a plot)
chain 1 MAGDLSAGFFMEELNTYRQKQGVVLKYQELPNSGPPRDRRFTFQVIIDGREFPEGEGRSKKEAKNAAAKLAVEILNKEKKAVSPLLLTTTNSSEGLSMGNYIGLINRIAQKKRLTVNYEQCASGVHGPEGFHYKCKMGQKEYSIGTGSTKQEAKQLAAKLAYLQILSEETSVKSDYLSSGSFATTCESQSNSLVTSTLASESSSEGDFSADTSEINSNSDSLNSSSLLMNGLRNNQRKAKRSLAPRFDLPDMKETKYTVDKRFGMDFKEIELIGSGGFGQVFKAKHRIDGKTYVIKRVKYNNEKAEREVKALAKLDHVNIVHYNGCWDGFDYDPETSDDSLESSDYDPENSKNSSRSKTKCLFIQMEFCDKGTLEQWIEKRRGEKLDKVLALELFEQITKGVDYIHSKKLIHRDLKPSNIFLVDTKQVKIGDFGLVTSLKNDGKRTRSKGTLRYMSPEQISSQDYGKEVDLYALGLILAELLHVCDTAFETSKFFTDLRDGIISDIFDKKEKTLLQKLLSKKPEDRPNTSEILRTLTVWKKSPEKNERHTC [chain 1 H37R]	2.7	2.5	
chain 1 MAGDLSAGFFMEELNTYRQKQGVVLKYQELPNAGPPRDRRFAFQVIIDGREFPEGEGRSKKEAKNAAAKLAVEILNKEKKAVSPLLLTTTNSSEGLSMGNYIGLINRIAQKKRLTVNYEQCASGVHGPEGFHYKCKMGQKEYSIGTGSTKQEAKQLAAKLAYLQILSEETSVKSDYLSSGSFATTCESQSNSLVTSTLASESSSEGDFSADTSEINSNSDSLNSSSLLMNGLRNNQRKAKRSLAPRFDLPDMKETKYTVDKRFGMDFKEIELIGSGGFGQVFKAKHRIDGKTYVIKRVKYNNEKAEREVKALAKLDHVNIVHYNGCWDGFDYDPETSDDSLESSDYDPENSKNSSRSKTKCLFIQMEFCDKGTLEQWIEKRRGEKLDKVLALELFEQITKGVDYIHSKKLIHRDLKPSNIFLVDTKQVKIGDFGLVTSLKNDGKRTRSKGTLRYMSPEQISSQDYGKEVDLYALGLILAELLHVCDTAFETSKFFTDLRDGIISDIFDKKEKTLLQKLLSKKPEDRPNTSEILRTLTVWKKSPEKNERHTC [chain 1 S33A H37R T42A]	4.7	3	
chain 2 TVDKRFGMDFKEIELIGSGGFGQVFKAKHRIDGKTYVIRRVKYNNEKAEREVKALAKLDHVNIVHYNGCWDGFDYDPETSDDSLESSDYDPENSKNSSRSKTKCLFIQMEFCDKGTLEQWIEKRRGEKLDKVLALELFEQITKGVDYIHSKKLIHRDLKPSNIFLVDTKQVKIGDFGLVTSLKNDGKRTRSKGTLRYMSPEQISSQDYGKEVDLYALGLILAELLHVCDTAFETSKFFTDLRDGIISDIFDKKEKTLLQKLLSKKPEDRPNTSEILRTLTVWKKSPEKNERHTC [chain 2 K39R]			4.2
chain 1 MAGDLSAGFFMEELNTYRQKQGVVLKYQELPNEGPPRDRRFEFQVIIDGREFPEGEGRSKKEAKNAAAKLAVEILNKEKKAVSPLLLTTTNSSEGLSMGNYIGLINRIAQKKRLTVNYEQCASGVHGPEGFHYKCKMGQKEYSIGTGSTKQEAKQLAAKLAYLQILSEETSVKSDYLSSGSFATTCESQSNSLVTSTLASESSSEGDFSADTSEINSNSDSLNSSSLLMNGLRNNQRKAKRSLAPRFDLPDMKETKYTVDKRFGMDFKEIELIGSGGFGQVFKAKHRIDGKTYVIKRVKYNNEKAEREVKALAKLDHVNIVHYNGCWDGFDYDPETSDDSLESSDYDPENSKNSSRSKTKCLFIQMEFCDKGTLEQWIEKRRGEKLDKVLALELFEQITKGVDYIHSKKLIHRDLKPSNIFLVDTKQVKIGDFGLVTSLKNDGKRTRSKGTLRYMSPEQISSQDYGKEVDLYALGLILAELLHVCDTAFETSKFFTDLRDGIISDIFDKKEKTLLQKLLSKKPEDRPNTSEILRTLTVWKKSPEKNERHTC [chain 1 S33E H37R T42E]	2.9	2.5	

Source: paper PMC5345052, “Auto-phosphorylation Represses Protein Kinase R Activity” (Scientific Reports, 2017)
